Reference: IntAct's records for PubMed 18772386

B1: Mpv17-like protein (Mus musculus), Q99MS3-1 (parent)
chain: MASWWRAFPQAARRYPWPTNVLLYAGLFSAGDALQQRLRGGPADWRQTRRVATLAVTFHGNFNYVWLRLLERALPGRAPRTVLAKVLCDQTVGGPIALSAFYVGMSVLQGKDDIFLDLKQKFWNTYKSGLMYWPFVQLTNFSLVPVHWRTAYTGLCAFLWATFLCFSQQSGDGTLQSIFIFLRRKEASDKSPEK
partner: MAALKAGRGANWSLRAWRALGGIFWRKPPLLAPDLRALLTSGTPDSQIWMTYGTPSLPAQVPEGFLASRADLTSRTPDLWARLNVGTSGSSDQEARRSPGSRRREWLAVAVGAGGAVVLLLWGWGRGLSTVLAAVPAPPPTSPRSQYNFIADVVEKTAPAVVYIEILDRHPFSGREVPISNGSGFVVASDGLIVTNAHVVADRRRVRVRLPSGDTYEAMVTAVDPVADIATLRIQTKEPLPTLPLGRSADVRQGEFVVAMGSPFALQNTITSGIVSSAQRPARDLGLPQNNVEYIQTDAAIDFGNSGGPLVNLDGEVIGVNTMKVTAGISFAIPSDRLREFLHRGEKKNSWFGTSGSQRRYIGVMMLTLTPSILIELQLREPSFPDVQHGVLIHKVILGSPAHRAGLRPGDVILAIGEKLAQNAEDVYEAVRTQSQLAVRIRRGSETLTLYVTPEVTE

Variants of: B1
Details: with htra2_mouse Htra2, Q9JIY5

effect of a mutation on the interaction	Variant
decreasing interaction	MASWWRAFPQAARRYPWPTNVLLYAGLFSAGDALQQRLRGGPADWRQTRRVATLAVTFHGNFNYVWLRLLERALPGRAPRTVLAKVLCDQTVGGPIALSAFYVGMSVLQGKADAFLDLKQKFWNTYKSGLMYWPFVQLTNFSLVPVHWRTAYTGLCAFLWATFLCFSQQSGDGTLQSIFIFLRRKEASDKSPEK [D112A;I114A]
